Molecular target: MBP-LDLR tail wild-type (full-length LDLR tail fused to maltose-binding protein)
Test: pull-down

- fold binding relative to AP-1A: ~5 fold
B1: recombinant GST-His-tagged AP-1B core complex (γ, β1, μ1B, σ1) (complex)
chain 1: not shown
chain 2: MTDSKYFTTTKKGEIFELKAELNSDKKEKKKEAVKKVIASMTVGKDVSALFPDVVNCMQTDNLELKKLVYLYLMNYAKSQPDMAIMAVNTFVKDCEDPNPLIRALAVRTMGCIRVDKITEYLCEPLRKCLKDEDPYVRKTAAVCVAKLHDINAQLVEDQGFLDTLKDLISDSNPMVVANAVAALSEIAESHPSSNLLDLNPQSINKLLTALNECTEWGQIFILDCLANYMPKDDREAQSICERVTPRLSHANSAVVLSAVKVLMKFMEMLSKDLDYYGTLLKKLAPPLVTLLSAEPELQYVALRNINLIVQKRPEILKHEMKVFFVKYNDPIYVKLEKLDIMIRLASQANIAQVLAELREYATEVDVDFVRKAVRAIGRCAIKVEQSAERCVSTLLDLIQTKVNYVVQEAIVVIKDIFRKYPNKYESVIATLCENLDSLDEPEARAAMIWIVGEYAERIDNADELLESFLEGFHDKSTQVQLQLLTAFVKLFLKKPTETQELVQQVLSLATQDSDNPDLRDRGYIYWRLLSTDPVAAKEVVLAEKPLISEETDLIEPTLLDELICYIGTLASVYHKPPSAFVEG
chain 3: MSASAVFILDVKGKPLISRNYKGDVPMTEIDHFMPLLMQREEEGVLAPLLSHGRVHFLWIKHSNLYLVATTLKNANASLVYSFLYKTVEVFCEYFKELEEESIRDNFVIVYDLLDELMDFGFPQTTDSKILQEYITQQGNKLETGKSRVPPTVTNAVSWRSEGIKYKKNEVFIDVIESVNLLVNANGSVLLSEIVGTIKLKVFLSGMPELRLGLNDRVLFELTGRSKNKSVELEDVKFHQCVRLSRFDNDRTISFIPPDGDFELMSYRLSTQVKPLIWIESVIEKFSHSRVEIMVKAKGQFKKQSVANGVEISVPVPSDADSPRFKTSVGSAKYVPEKNVVIWSIKSFPGGKEYLMRAHFGLPSVETEEVEGRPPIGVKFEIPYFTVSGIQVRYMKIIEKSGYQALPWVRYITQSGDYQLRTS
chain 4: MIHFILLFSRQGKLRLQKWYITLPDKERKKITREIVQIILSRGHRTSSFVDWKELKLVYKRYASLYFCCAIENQDNELLTLEIVHRYVELLDKYFGNVCELDIIFNFEKAYFILDEFIIGGEIQETSKKIAVKAIEDSDMLQEVSTVCQTMGER
